± gives the uncertainty stated by the source.
Test: self-splicing fitness, log relative to wild type (ln ratio); higher = more splicing; Tetrahymena group I intron in knt gene, E. coli kanamycin selection, DiMSum; sequences stand for … in CUCUCU…GGAGGGAAAAGUUAUCAGGCAUGCACCUGGUAGCUAGUCUUUAAACCAAUAGAUUGCAUCGGUUUAAAAGGCAAGACCGUCAAAUUGCGGGAAAGGGGUCAACAGCCGUUCAGUACCAAGUCUCAGGGGAAACUUUGAGAUGGCCUUGCAAAGGGUAUGGUAAUAAGCUGACGGACAUGGUCCUAACCACGCAGCCAAGUCCUAAGUCAACAGAUCUUCUGUUGAUAUGGAUGCAGUUCACAGACUAAAUGUCGGUCGGGGAAGAUGUAUUCUUCUCAUAAGAUAUAGUCGGACCUCUCCUUAAUGGGAGCUAGCGGAUGAAGUGAUGCAACACUGGAGCCGCUGGGAACUAAUUUGUAUGCGAAAGUAUAUUGAUUAGUUUUGGAGUACUCGUGGUCG
Outline: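 A randomised library covering all eight P1ex-region intron nucleotides was built with the intron in the knt kanamycin-resistance gene on pET-22b(+) and held in E. coli BL21(DE3). Cells were grown overnight at 37°C or 30°C on LB agar, with or without 25 μg/mL kanamycin, plus 100 μg/mL carbenicillin, 50 μM IPTG and 0.2% rhamnose, and pooled colonies were amplicon-sequenced on an Illumina HiSeq 2500. DiMSum fitness is the error-weighted combination of wild-type-normalised replicate fold changes, kanamycin versus none.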

Row | Sequence | self-splicing fitness (ln) (30 °C) | self-splicing fitness (ln) (37 °C)
1 | UCCCAGCAAUAUUACGCCCA | -1.5 ± 0.18 | -0.396 ± 0.14
2 | CAGUAGCAAUAUUACGAACU | -1.4 ± 0.22 | -1.05 ± 0.17
3 | CCGGAGCAAUAUUACGUUUG | -1.54 ± 0.15 | -0.756 ± 0.15
4 | CCAUAGCAAUAUUACGCGGC | -4.01 ± 0.35 | -2.87 ± 0.43
5 | GCGUAGCAAUAUUACGAUAC | -1.95 ± 0.12 | -0.893 ± 0.12
6 | ACAAAGCAAUAUUACGCUGA | -2.65 ± 0.2 | -1.14 ± 0.15
7 | AUCUAGCAAUAUUACGCACU | -1.42 ± 0.17 | 0.0807 ± 0.17
8 | UUGGAGCAAUAUUACGGGGA | -3.14 ± 0.28 | -2.72 ± 0.31
9 | UUUUAGCAAUAUUACGCAUA | -1.52 ± 0.27 | -0.671 ± 0.21
10 | AACAAGCAAUAUUACGAACU | -0.328 ± 0.052 | 0.146 ± 0.084
11 | CGGUAGCAAUAUUACGGUUA | -2.23 ± 0.13 | -1.3 ± 0.11
12 | AGACAGCAAUAUUACGCUAG | -4.3 ± 0.3 | -2.81 ± 0.22
13 | UAGGAGCAAUAUUACGUGUU | -2.97 ± 0.13 | -2.51 ± 0.17
14 | GCAAAGCAAUAUUACGGGCU | -2.56 ± 0.12 | -2.45 ± 0.2
15 | UGACAGCAAUAUUACGACCU | -1.09 ± 0.11 | 0.0765 ± 0.14
16 | CAUGAGCAAUAUUACGUGCA | -1.37 ± 0.15 | -1.97 ± 0.24
17 | UUGUAGCAAUAUUACGCCGA | -0.677 ± 0.23 | -0.628 ± 0.24
18 | CGGAAGCAAUAUUACGGGGG | -3.72 ± 0.13 | -3.16 ± 0.13
19 | UCGCAGCAAUAUUACGCAGG | -3.59 ± 0.2 | -2.2 ± 0.19
20 | GCAUAGCAAUAUUACGCGUU | -2.03 ± 0.11 | -2.14 ± 0.17
21 | AUCGAGCAAUAUUACGUUGA | -3.44 ± 0.27 | -2.94 ± 0.22
22 | UCUUAGCAAUAUUACGCCGA | -2.03 ± 0.28 | -0.379 ± 0.38
23 | CCUAAGCAAUAUUACGAUGG | -2.4 ± 0.16 | -2.09 ± 0.17
24 | CUGCAGCAAUAUUACGUAAC | -3.31 ± 0.26 | -2.38 ± 0.29

Row | Sequence | self-splicing fitness (ln) (30 °C) | self-splicing fitness (ln) (37 °C)
25 | UAACAGCAAUAUUACGGCUC | -1.77 ± 0.1 | -0.836 ± 0.14
26 | UCGGAGCAAUAUUACGGAUU | -2.73 ± 0.27 | -2.85 ± 0.38
27 | CAUAAGCAAUAUUACGUUGC | -4.07 ± 0.3 | -3.3 ± 0.3
28 | GUAUAGCAAUAUUACGCCCA | -1.33 ± 0.15 | -0.76 ± 0.17
29 | GCUGAGCAAUAUUACGGGAA | -4.56 ± 0.42 | -2.02 ± 0.21
30 | CAGUAGCAAUAUUACGCCAU | -0.742 ± 0.18 | -2.87 ± 0.47
31 | AUGAAGCAAUAUUACGAUUC | -2.23 ± 0.1 | -1.33 ± 0.14
32 | UUGCAGCAAUAUUACGGGUC | -2.73 ± 0.21 | -1.7 ± 0.22
33 | GAAGAGCAAUAUUACGCCCA | -3.65 ± 0.48 | -0.321 ± 0.31
34 | AUGAAGCAAUAUUACGACCC | -1.6 ± 0.22 | –
35 | GCGUAGCAAUAUUACGCUUA | – | -2.06 ± 0.32
36 | GAAAAGCAAUAUUACGAGUA | -3.92 ± 0.42 | -2.44 ± 0.2
37 | GGUUAGCAAUAUUACGUGAU | -2.18 ± 0.19 | -1.14 ± 0.2
38 | ACCCAGCAAUAUUACGAGAU | -1.72 ± 0.061 | -0.655 ± 0.073
39 | CCCGAGCAAUAUUACGGACA | -2.72 ± 0.16 | -1.19 ± 0.12
40 | GCCAAGCAAUAUUACGAGGG | -2.8 ± 0.094 | -1.82 ± 0.11
41 | UGCCAGCAAUAUUACGCGAG | -3.22 ± 0.17 | -2.92 ± 0.21
42 | UAACAGCAAUAUUACGAACU | -0.722 ± 0.11 | -0.651 ± 0.15
43 | CAAGAGCAAUAUUACGCUCA | -2.63 ± 0.17 | -1.08 ± 0.2
44 | AUUCAGCAAUAUUACGUCCC | -1.53 ± 0.13 | -1.3 ± 0.14
45 | AACUAGCAAUAUUACGGCGU | -0.717 ± 0.072 | 0.0758 ± 0.085
46 | GCAUAGCAAUAUUACGGUUU | -1.62 ± 0.08 | -0.625 ± 0.085
47 | AACAAGCAAUAUUACGUACA | -1.04 ± 0.095 | -0.329 ± 0.11
48 | UCAAAGCAAUAUUACGCCCU | -3.06 ± 0.44 | -0.887 ± 0.18
